Results: the supplement of paper PMC10567573

B1: DVL3 (parent)
chain: HPDPAPFCADNPSELPPPMERTGG
B2: SAT2 (parent)
chain: LTEAEGWHFFCFQGEATRKLAGK
B3: GNB5 (parent)
chain: DINSVRYYPSGDAFASGSDDATCR

Variants of: B1
Test: protein stability index of a GFP-peptide fusion (GPS, HEK-293T) (PSI 1-6); higher = more stable
Conditions: c terminus: a fixed tail appended
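Note: lentivirally expressed fusions sorted by FACS into six bins by GFP to DsRed ratio, PSI derived from sequencing read proportions per bin multiplied by bin number.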

Protein stability index of substitutions, site by site:
N11: L 2.59
F7: W 2.21; R 5.23
A9: G 3.27
C8: G 4.65; R 2.62; E 5.49; V 2.84; W 2.74
P16: D 2.9; K 2.19; C 2.38; G 3.1; E 3.09; L 2.42; I 2.7; R 2.28; H 2.58; S 3.19; Q 3.59; W 2.17; V 2.9; M 3.02; A 3.04
T22: L 2.94; A 3.02; R 2.58; W 2.22; Q 2.78; M 2.96; K 2.85; E 2.88; D 3.31; G 2.5; V 2.02
E20: G 1.73
P6: W 3.3; I 3; L 2.83; D 5.21; V 2.73; N 4.83; T 3.92; Q 4.12; R 2.91; G 3.57; H 3.46; S 3.14; E 4.91; C 3.01; A 2.69; Y 2.46; F 2.48; K 3.33; M 2.83
G24: S 3.1
A5: K 2.7; C 2.75; Y 3.11; G 2.87; M 1.82; W 2.41; V 3.62; Q 3.42; S 2.54; E 3.91; F 2.58; R 2.29; D 3.82; I 2.77; N 3.93; L 2.77
P17: G 2.6; E 3.41; Y 2.86; C 2.52; L 2.76; D 2.93; M 2.54; S 2.92; Q 3.02; K 2.92; F 2.4; V 2.82; A 2.73; I 2.63; R 2.62; W 2.54; N 2.65; H 2.61
H1: L 5.58; E 5.45; M 4.93; R 4.98; K 5.2
D3: M 3.42; V 3.39; W 2.81; R 4.13
G23: M 2.62; R 2.89; V 2.47; W 2.07
E14: G 2.65
P2: M 2.04; D 5.12; A 2.08; Y 3.84; F 4.57; Q 1.54; H 3.19; C 2.28; T 2.27; S 3.51; K 5.1; W 3.03; L 1.93; R 4.33; N 4.74; G 5.4; E 4.46
P4: W 5.19; N 5.35; R 4.78; Y 4.58; L 4.8; G 4.94; D 5.64; T 4.9; Q 5.3; E 5.24; K 5.4; V 5.14; F 4.71; M 5.22; C 4.85; I 4.99; A 4.6; S 5.24; H 4.84
P12: R 2.95; M 3.54; K 2.88; E 3.19; W 2.17; N 2.42; Q 2.86; L 3.24; V 2.3
P18: G 2.79; Y 2.61; I 2.82; E 3.32; V 3.15; N 3.2; W 2.35; K 2.53; H 2.69; C 2.94; M 2.68; T 3.12; L 2.95; A 2.48; D 3.27; R 2.8; Q 3.42; F 2.7; S 3.05

Variants of: B2
Test: as above
Conditions: c terminus: native

Protein stability index, by site and new letter:
L1: T 2.33; K 2.81; Q 3.47; N 3.57; R 2.09; V 2.22; S 3.02; D 3.43; I 1.79; M 2.34; G 4.09; H 1.48; E 3.73; A 2.58; C 2.48
H8: P 2.97; A 2.21; D 3.44; K 3.24; N 3.91; G 3.25; I 2.19; F 1.9; C 1.78; E 3.41
T2: Q 2.48; S 2.34; H 2.32; P 2.12; G 1.76; R 2.14; W 1.11; F 1.8; C 1.99; E 3.48; I 3.08; K 2.14; M 2.71; A 1.38; Y 1.56; N 2.75; D 2.97
W7: M 3.5; F 2.22; H 3.96; T 4.08; L 3.12; E 4.9; Y 2.58; I 2.63; Q 4.29; G 3.63; N 4.35; R 3.72; K 3.88; P 4.43; S 4.22; C 3.87; D 4.63; V 3.42
E5: P 1.86; T 1.94; S 2.17; K 1.18; N 1.73; H 1.85; A 2.17; F 1.79; M 4.97; W 2.44; L 1.29; Y 1.97; V 1.36; I 3.25; Q 2.16; C 1.26
E3: S 1.75; K 1.25; T 2.11; P 1.74; L 1.58; C 1.89; R 1.43; N 1.48; M 2.56; A 1.79; Q 1.82; Y 2.18; D 2.49; W 1.37; F 1.64; H 1.67; I 3.97; G 1.78
G6: V 2.15; C 1.5; D 3.48; T 2.03; F 1.79; H 2.14; N 2.56; I 2.49; S 2.27; K 2.15; A 1.58; E 3.1; Q 2.6; Y 1.61; R 3.03; P 2.78; M 2.05
A4: G 2.68; H 3; R 2.17; T 2.9; M 1.66; P 3.18; E 3.14; Y 1.56; D 2.37; K 2.61; V 1.64; L 2.14; C 1.45; S 2.66; W 2.27; N 2.87; Q 2.36; F 1.31

Variants of: B3
Test: as above
Conditions: c terminus: a fixed tail appended

Protein stability index of substitutions, site by site:
R24: E 4.71; Q 4.68; L 3.63; D 4.32; H 4.29; I 3.77; S 4.12; N 3.59; W 3.53; G 4.59; F 3.51; A 4.03; T 4.41; K 4.19; Y 3.99; M 4.03; C 4.06; P 4.3; V 3.92
C23: I 4; F 3.95; E 4.74; G 4.39; R 3.92; N 3.95; V 3.87; M 3.62; Q 4.13; W 3.14; D 4.48; T 4.55; S 4.05; L 3.95; Y 3.9; P 4.14; H 4.3; K 4.41
